Assay results taken from patent publication US11779649B2, “Antibodies to PMEL17 and conjugates thereof” (Novartis AG, priority 2018, dated 2023).
Where a chain is given by its changes, count along the chain named. Like-named read-outs stand apart in the source and are kept apart here. Each block holds one molecule with its values, some of them ahead of it. Starred links: 1 amine or outer side, 2 acyl side, 3 side chain; linkers in the order of their positions; H or OH if unused. Positions of bridges follow the written chain, without caps; N, C: chain ends. Non-standard residues stand in square brackets, D forms with d. Residues, ends and D or L forms follow the SMILES beside them. *: point of attachment. Leu(3R-OH,Nα-propionyl) = CCC(=O)N[C@H](C(=O)*)[C@H](O)C(C)C; X1 = CC(C)[C@@H](O[*:3])[C@H](N[*:1])C(=O)[*:2]; NMeT = CN[C@H](C(=O)O)[C@@H](C)O; dPhLac = O=C(O)[C@H](O)Cc1ccccc1; NMeA = CN[C@@H](C)C(=O)O; NMeDha = C=C(NC)C(=O)O

Tests used:
92.1 uveal melanoma = assay: Resazurin-based viability assay, 92.1 uveal melanoma cells; assay type: cell-based; details: 92.1 GNAQ^Q209L; Table 1; read-out: GI50 (nM) 92.1GNAQ^Q209L
Method: (§1) Following drug treatment for 96 or 120 hours, cell viability and proliferation were determined using a resazurin-based viability assay. Briefly, cells were incubated with a resazurin-based solution and color change was detected by absorbance with a spectrophotometer and used as a readout of cell viability. Data presented as mean of 3 independent replicates and relative to PBS-treated cells (control).
as §1, with “(control) (FIG. 6).” for “(control).”
Following drug treatment for 96 or 120 hours, cell viability and proliferation were determined using a resazurin-based viability assay. Data presented as mean of 3 independent replicates and relative to PBS-treated cells (control) (FIG. 8).
as §1

human PMEL17 = molecular target: T1, human PMEL17 (Homo sapiens, UniProt P40967); assay: Apparent affinity by FACS titration of IgGs on G-361 melanoma cell line; assay type: binding
T1 construct: G-361 melanoma cell line expresses human PMEL17 at a lower level compared to the HKB11-human PMEL17 overexpressing cell line; endogenous in cells; host or cells: G-361 (human melanoma)
T1 sequence (P40967 25-661): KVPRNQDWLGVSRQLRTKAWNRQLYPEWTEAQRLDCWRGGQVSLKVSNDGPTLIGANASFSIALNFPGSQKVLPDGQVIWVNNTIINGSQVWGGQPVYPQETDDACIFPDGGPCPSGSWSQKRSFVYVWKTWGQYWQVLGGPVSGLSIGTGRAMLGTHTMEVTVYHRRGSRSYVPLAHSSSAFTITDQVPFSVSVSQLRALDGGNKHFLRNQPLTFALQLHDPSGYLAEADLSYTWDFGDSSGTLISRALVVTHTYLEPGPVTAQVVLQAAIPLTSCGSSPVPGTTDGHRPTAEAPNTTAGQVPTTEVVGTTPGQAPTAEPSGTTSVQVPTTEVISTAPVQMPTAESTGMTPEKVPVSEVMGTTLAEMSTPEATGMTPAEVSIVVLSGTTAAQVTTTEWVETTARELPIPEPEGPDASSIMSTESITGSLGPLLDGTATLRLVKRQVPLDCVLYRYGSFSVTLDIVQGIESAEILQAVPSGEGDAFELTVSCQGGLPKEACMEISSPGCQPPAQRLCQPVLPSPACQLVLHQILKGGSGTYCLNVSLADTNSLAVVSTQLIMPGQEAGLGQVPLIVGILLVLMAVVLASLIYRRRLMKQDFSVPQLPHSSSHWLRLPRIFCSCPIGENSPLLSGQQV
Method: (§2) Purified IgGs were titrated on a variety of PMEL17 expressing and PMEL17 non expressing cell lines (for control) to determine EC50 values. Cells were harvested using Accutase, adjusted to ˜4×10^6 cells/ml into FACS buffer (PBS, 3% FCS and 0.02% Na-Azide) and kept on ice to avoid internalization. 15 μl of cell suspension/well were transferred into 384 well V-bottom plates (Greiner, Cat #781280) and incubated with 15 μl of IgGs at different concentrations (most commonly from 200 to 3.5×10−3 nM) for 1 hour at 4° C., gently shaking. Following incubation, cells were washed three times with FACS buffer. After each washing step, cells were centrifuged (250×g, 5 min, 4° C.) and carefully resuspended. 15 μl of detection antibody conjugated to PE (PE-conjugated goat anti-human IgG, F(ab′)2 fragment specific, 1:150 in FACS buffer; Jackson Immuno Research, #109-116-097) or Alexa Fluor (Alexa Fluor-conjugated goat anti-human IgG, F(ab′)2 fragment specific, 1:150 in FACS buffer; Jackson Immuno Research, #109-606-097) were added and samples were incubated for 45 minutes to 1 hour on ice in the dark, gently shaking. After 3 washing steps, cells were resuspended in 30 μl of FACS buffer and samples were measured using the IntelliCyt HTFC device. EC50 values were calculated using the Graphpad Prism software. G-361 melanoma cell line expresses human PMEL17 at a lower level compared to the HKB11-human PMEL17 overexpressing cell line, and therefore allows a more precise ranking of the clones depending on their apparent affinity on cells.
The cross-specificity of the IgGs was evaluated in does response FACS on G-361 (human melanoma), HKB11-cyno-PMEL17, HKB11-rat PMEL17 and B16-F10 (mouse PMEL17 expressing melanoma) (Table 3). […]

PMEL17 = assay: Cross-reactivity (cross-specificity profile) of anti-PMEL17 IgGs in dose response FACS; assay type: binding; set-up: key: h/c/r/m: human/cyno/rat/mouse; h/c/r: human/cyno/rat; h/c/(m): human/cyno/mouse; h/c: human/cyno; details: h human, c cyno, r rat, m mouse
Method: (§3) The cross-specificity of the IgGs was evaluated in does response FACS on G-361 (human melanoma), HKB11-cyno-PMEL17, HKB11-rat PMEL17 and B16-F10 (mouse PMEL17 expressing melanoma) (Table 3). Testing on G-361 was performed using a detection antibody labelled to PE. In contrast, an Alexa-Fluor labelled detection antibody had to be used for testing the candidates on the other cell lines so as to reach detectable signals.
IgGs were classified into several epitope groups according to their cross-specificity profiles.

UACC-62 = assay: FACS titration of IgGs on UACC-62 cells; assay type: binding; details: UACC-62, PE-labelled detection antibody
Method: as §2

mouse PMEL17 = molecular target: T2, mouse PMEL17 (Mus musculus, UniProt Q60696); assay: Apparent affinity by FACS titration of IgGs on B16-F10 melanoma cells; assay type: binding; details: Alexa Fluor
T2 construct: B16-F10 (mouse PMEL17 expressing melanoma); endogenous in cells; host or cells: B16-F10 (mouse melanoma)
T2 sequence (Q60696 24-626): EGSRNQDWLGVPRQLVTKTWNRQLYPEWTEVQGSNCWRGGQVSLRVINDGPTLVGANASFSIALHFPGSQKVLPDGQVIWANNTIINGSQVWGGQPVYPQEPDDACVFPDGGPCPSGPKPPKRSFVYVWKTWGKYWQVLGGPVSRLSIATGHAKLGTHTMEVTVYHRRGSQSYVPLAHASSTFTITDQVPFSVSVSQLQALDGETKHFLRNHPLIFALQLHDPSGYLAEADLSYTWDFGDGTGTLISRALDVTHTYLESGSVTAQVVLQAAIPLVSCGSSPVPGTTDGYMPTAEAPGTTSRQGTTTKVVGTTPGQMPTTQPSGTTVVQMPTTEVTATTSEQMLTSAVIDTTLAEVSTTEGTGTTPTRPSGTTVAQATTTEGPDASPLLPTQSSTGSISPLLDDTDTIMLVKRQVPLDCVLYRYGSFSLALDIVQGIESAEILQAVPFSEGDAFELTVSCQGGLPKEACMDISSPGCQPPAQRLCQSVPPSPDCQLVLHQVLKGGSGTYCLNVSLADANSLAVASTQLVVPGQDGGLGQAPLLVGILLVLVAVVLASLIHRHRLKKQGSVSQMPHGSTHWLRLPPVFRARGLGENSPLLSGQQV
Method: as §2, §3

[1] = G-361, Alexa Fluor-labelled detection antibody, read-out: FACS EC50 (nM) G-361 (Alexa Fluor)
[2] = G-361, PE-labelled detection antibody, read-out: FACS EC50 (nM) G-361 (PE)

Molecule: C=C1C(=O)N[C@@H](C)C(=O)N(C)[C@@H](C)C(=O)N[C@@H]([C@H](OC(=O)[C@@H](NC(=O)CC)[C@H](O)C(C)C)C(C)C)C(=O)N(C)[C@@H]([C@@H](C)OC)C(=O)O[C@H](C)[C@H](NC(C)=O)C(=O)O[C@H](Cc2ccccc2)C(=O)N1C [Compound (A3), (R)-1-((3S,6S,9S,12S,18R,21S,22R)-21-acetamido-18-benzyl-3-((R)-1-methoxyethyl)-4,9,10,12,16,22-hexamethyl-15-methylene-2,5,8,11,14,17,20-heptaoxo-1,19-dioxa-4,7,10,13,16-pentaazacyclodocosan-6-yl)-2-methylpropyl (2S,3R)-3-hydroxy-4-methyl-2-propionamidopentanoate] (Ac-T[dPhLac][NMeDha]A[NMeA][X1](Leu(3R-OH,Nα-propionyl))[NMeT](Me); ester 1-C)
GI50 (92.1 uveal melanoma): 9.3 nM

EC50 (human PMEL17; [1]): 62.8 nM
EC50 (mouse PMEL17): > 100 nM
B1: MOR024353: anti-PMEL17 antibody (IgG) (antibody, V domains shown)
VH: QVQLVQSGAEVKKPGSSVKVSCKASGGTFSDYAISWVRQAPGQGLEWMGGIIPIFGDANYAQKFQGRVTITADESTSTAYMELSSLRSEDTAVYYCAREGSSYFYMAYWGQGTLVTVSS
VL: SYELTQPLSVSVALGQTARITCSGDNIGSKLASWYQQKPGQAPVLVIYDDSNRPSGIPERFSGSNSGNTATLTISRAQAGDEADYYCAATAGDRWAYVFGGGTKLTVL
Cross spe profile (based on C14 detection ab) (PMEL17): h/c
UACC-62 (PE) (UACC-62): Negative

EC50 (human PMEL17; [1]): 1.3 nM
EC50 (mouse PMEL17): > 100 nM
B2: Y010900: anti-PMEL17 antibody (IgG) (antibody, V domains shown)
VH: EVQLVESGGGLVKPGGSLRLSCAASGFTFSNAWMSWVRQAPGKGLEWVGRIKSKTDAGTTDYAAPVKGRFTISRDDSKNTLYLQMNSLKTEDTAVYYCARTIYPSAPSSSLDYWGQGTLVTVSS
VL: DIQMTQSPSSLSASVGDRVTITCRASQGISNYLAWYQQKPGKVPKLLIYAASTLQSGVPSRFSGSGSGTDFTLTISSLQPEDVATYYCQQLIFFPLTFGQGTKVEIK
Cross spe profile (based on C14 detection ab) (PMEL17): h/c/r/m
UACC-62 (PE) (UACC-62): Negative

B3: Y010906: anti-PMEL17 antibody (IgG) (antibody, V domains shown)
VH: EVQLVESGGGLVKPGGSLRLSCAASGFTFSNAWMSWVRQAPGKGLEWVGRIKSKTDAGTTDYAAPVKGRFTISRDDSKNTLYLQMNSLKTEDTAVYYCARDEYPWGWFDVWGQGTLVTVSS
VL: B2 VL with L11V, N31S, Y32W, V43A, T53S, V83F, L91Y, F94Y
Cross spe profile (based on C14 detection ab) (PMEL17): h/c/r/m
UACC-62 (PE) (UACC-62): Negative

EC50 (human PMEL17; [1]): 10 nM
B4: Y010910: anti-PMEL17 antibody (IgG) (antibody, V domains shown)
VH: EVQLVESGGGLVKPGGSLRLSCAASGFTFSNAWMSWVRQAPGKGLEWVGRIKSKTDAGTTDYAAPVKGRFTISRDDSKNTLYLQMNSLKTEDTAVYYCARVASPSAPGGFDYWGQGTLVTVSS
VL: B2 VL with L91S, I92L, F94A, L96F
Cross spe profile (based on C14 detection ab) (PMEL17): h/c/(m)
UACC-62 (PE) (UACC-62): Negative

EC50 (human PMEL17; [2]): 1.6 nM
B5: Y010356: anti-PMEL17 antibody (IgG) (antibody, V domains shown)
VH: EVQLVESGGGLVKPGGSLRLSCAASGFTFSNYWISWVRQAPGKGLEWVGRIKSKTYGGTTDYAEPVKGRFTISRDDSKNTLYLQMNSLKTEDTAVYYCARVSGYYSHSGGFDVWGQGTLVTVSS
VL: B2 VL with Q90K, L91T, I92W, F93R, F94T, L96G
Cross spe profile (based on C14 detection ab) (PMEL17): h/c/r/m
UACC-62 (PE) (UACC-62): Negative

EC50 (human PMEL17; [2]): 0.5 nM
B6: Y010355: anti-PMEL17 antibody (IgG) (antibody, V domains shown)
VH: EVQLVESGGGLVKPGGSLRLSCAASGFTFSNYWISWVRQAPGKGLEWVGRIKSKTYGGTTDYAEPVKGRFTISRDDSKNTLYLQMNSLKTEDTAVYYCARTSRRSYAFDYWGQGTLVTVSS
VL: DIQMTQSPSTLSASVGDRVTITCRASQSISSWLAWYQQKPGKAPKLLIYDASSLESGVPSRFSGSGSGTEFTLTISSLQPEDFATYYCQQITRYPVTFGQGTKVEIK
Cross spe profile (based on C14 detection ab) (PMEL17): h/c/r/m
UACC-62 (PE) (UACC-62): Negative

EC50 (human PMEL17; [1]): 3.2 nM
B7: Y010903: anti-PMEL17 antibody (IgG) (antibody, V domains shown)
VH: EVQLVESGGGLVKPGGSLRLSCAASGFTFSNAWMSWVRQAPGKGLEWVGRIKSKTDAGTTDYAAPVKGRFTISRDDSKNTLYLQMNSLKTEDTAVYYCARASHRLHSLFDVWGQGTLVTVSS
VL: B6 VL with I91G, T92L, R93F, V96H
Cross spe profile (based on C14 detection ab) (PMEL17): h/c/(m)
UACC-62 (PE) (UACC-62): Negative

EC50 (human PMEL17; [1]): 1.7 nM
EC50 (mouse PMEL17): > 100 nM
B8: MOR024354: anti-PMEL17 antibody (IgG) (antibody, V domains shown)
VH: QVQLLESGGGLVQPGGSLRLSCAASGFTFSSFGMSWVRQAPGKGLEWVSAISYSGSDTYYADSVKGRFTISRDNSKNTLYLQMNSLRAEDTAVYYCARDVGVMDYWGQGTLVTVSS
VL: SYELTQPLSVSVALGQTARITCSGDNLGTYYAHWYQQKPGQAPVLVIYSQSHRPSGIPERFSGSNSGNTATLTISRAQAGDEADYYCGAWDAPSPELVFGGGTKLTVL
Cross spe profile (based on C14 detection ab) (PMEL17): h/c/r
UACC-62 (PE) (UACC-62): Negative
